Assay results reported in the RNAGym collection of RNA variant scans (doi:10.1073/pnas.2313332121).

B1: TPR t1 (parent)
chain: GACCAAUCUGCCCUCAGAGCUCGAGAACAUCUUCGGAUGCAGAGGAGGCAGGCUUCGGUGGCGCGAUAGCGCCAACGUCCUCAACCUCCAAUGCAUCCCACCACAUGAUGAUGCCUGAAGAGCCUUGGUUUUUUG

Variants of: B1
Experiment: polymerase ribozyme fitness, log enrichment relative to wild type (log ratio); higher = more active; in vitro selection for triplet polymerase activity
Procedure, shortened: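 One round of in vitro selection, in triplicate, was applied to PCR-built, transcribed mutant libraries of each subunit of a heterodimeric triplet polymerase ribozyme. The steps were annealing with a biotinylated primer, partner subunit and triplets, incubation frozen at −7 °C, gel excision of extended constructs, streptavidin-bead capture and RT-PCR. Fitness is the logarithm, base 2, of genotype enrichment over wild-type enrichment from inverse-variance-weighted replicate averages of Illumina-sequenced inputs and outputs, keeping genotypes with ≥10 input reads and ≥1 read per output.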

| Variant | polymerase ribozyme fitness (log ratio) |
| --- | --- |
| A37U C40U U87G | -1.01 |
| A37U U126A | -2.55 |
| A37U G47A G77A | -1.29 |
| A37U C82G G110C | -6.53 |
| A37U G45U C56U C70G C102G G113A U125A | -7.38 |
| A37U C73A U87C | 0.034 |
| U38C G63A G77C U131G | -2.97 |
| U38G G93C A121U U133G | -1.6 |
| U38G C56U C79G U81G U96C C104A G110C | -5.98 |
| G39A C40U | -1.56 |
| A37U G113U G120A | -2.83 |
| A37U G42C G57C C70U U129A | -5 |
| A37G G61U | -1.33 |
| A37G G61C | -1.44 |
| A37G G61A | -0.324 |
| G39A G61A C85U | -0.757 |
| A37U G60U G113U | -3.06 |
| G39A C62U A83U U87G | -0.927 |
| U38G U54C C56U G61U A111U | -5.38 |
| U38C G63U G77C U131G | -3.41 |
| A37U A50C C124G | 1.16 |
| A37G G57A G110C | -5.28 |
| G39A G61U A100C C123A | -1.14 |
| U38C C53A G93C G122A C123U | -2.19 |

| Variant | polymerase ribozyme fitness (log ratio) |
| --- | --- |
| U38A G42U U59A C88G A95U C114A | -4.56 |
| G39A A43U C70U C82U G113C U132C | -3.27 |
| A37U G127A | -2.32 |
| A37U C62A U92C | -2.86 |
| A37U C70A C99U | -5.64 |
| U38G C53G | -1.52 |
| A37U U54C G60U | 1.01 |
| A37U A121C U126G G128U | 0.977 |
| U38A G45U G52A U131G | -3.68 |
| G39A C102A | -2.49 |
| U38G G113U U125G | -3.75 |
| U38G U133A | -0.846 |
| G39A C40U C72G | -2.72 |
| A37U U54A G61C C102A | -4.66 |
| A37U C40A C94U | -4.04 |
| U38A | -0.984 |
| U38G | -0.73 |
| U38C | -0.501 |
| U38G C53G G69U C98A | -6.04 |
| U38G C72G | -0.641 |
| A37U U130G | -1.28 |
| G39A C70U | -0.985 |
| U38G C62U C86U C115A | -2.04 |
| A37U G42A | -2.01 |

| Variant | polymerase ribozyme fitness (log ratio) |
| --- | --- |
| A37G U109G | -5.43 |
| A37U A91G A105U | -3.28 |
| G39A G63U C82U U133G | -2.41 |
| U38A U59G A83C | -1.75 |
| G39A G60U | 0.0117 |
| G39A G60A | -0.734 |
| U38A G57A G63A | -4.08 |
| U38G C62G C86A C124A | -2.75 |
| A37U G113A C123U | -2.5 |
| G39A A50U G63C | -2.66 |
| G39A C70G G120C G122U | -3.09 |
| U38A U130C | -0.259 |
| A37U G69U | -0.0814 |
| A37G G52C A100C C104U | -2.8 |
| U38A G93U C123U | -3.41 |
| G39A C86A C123A | -1.81 |
| A37U C101G G128C | -3.4 |
| A37U U132C | -1.09 |
| A37U G77A A90U C123U | -0.717 |
| G39A A43U C86G | -1.99 |
| A37U A43U G93C U116A | -6.51 |
| A37U C49A U55C U112A | 0.525 |
| U38G C70U C80U G120C | -1.36 |
| A37U G77U G93C | -2.05 |

| Variant | polymerase ribozyme fitness (log ratio) |
| --- | --- |
| U38A G60A C79U | -1.22 |
| A37U A74G A90C | -2.26 |
| U38G C89A | -2.14 |
| U38A A90U | -2.22 |
| A37U G69C C72U C85U | -1.89 |
| U38A A83C U92C C124A | -1.34 |
| A37G U38G G61U C104U C124G | -4.81 |
| G39A G45A C53A C102U A111C | -3.94 |
| G39A C89G A90C | -2.4 |
| G39A G69U C79A G127A | -2.91 |
| A37U G39C G57C G61A U106C G113C | -4.04 |
| G39A A41U G69U | -0.975 |
| U38G G39U U54G U87A G113C | -3.28 |
| G39A C56G | -1.24 |
| U38C A46G | -3.03 |
| G39A G63U | -2.24 |
| G39A G63C | -1.48 |
| A37U G51A A100C U112A | -5.37 |
| U38G C64U | -1.09 |
| A37U A50U G63U G120U U126A U130A | -5.22 |
| U38A G60U C62A C115G | -6.12 |
| U38A A41G G44A C64U C82U | -4.14 |
| U38G G45U G47A C73U | -5.77 |
| G39A A43U C114U | -2.78 |

| Variant | polymerase ribozyme fitness (log ratio) |
| --- | --- |
| U38C G117U G120A | -2.23 |
| A37U G52C G71A C115U U132C | -3.24 |
| A37U G47U G60A G110A | -3.74 |
| A37G G77A U130G | -1.16 |
| A37G G63U U81A | -2.09 |
| U38G G69U C98A | -4.75 |
| A37U G117A | -1.4 |
| U38G A95C | 0.185 |
| A37G G120A | 0.248 |
| A37U U133G | -1.2 |
| A37U U38C C53U | -1.6 |
| A37U A90G C97A | -5.5 |
| A37U G39U | -1.39 |
| A37U C53G G63C U116A | -2.98 |
| A37U G113U | -3.11 |
| G39A G69C U112A | -1.42 |
| G39A A74U C82A | -0.903 |
| A37U G45C A46C U78A | -2.59 |
| A37U G44A G122A U130C U131A G135U | -1.23 |
| A37U C82A G120C | 0.889 |
| A37U G39C U54C U59G C89A U112A A121C | -4.68 |
| A37U U78C | -0.461 |
| G39A G61A U78C | -0.505 |
| U38C U59G A95C | -0.718 |

| Variant | polymerase ribozyme fitness (log ratio) |
| --- | --- |
| A37U C72U C98A C123G | -5.11 |
| A37U G122A | -1.18 |
| G39A C62U A75U A83C U87C | -1.16 |
| G39A A41G A83G C94A | -4.25 |
| U38G U55C G61A A91C A108C G110U C124A U126C | -6.93 |
| U38G C104A | -1.93 |
| A37G G69A | -2.42 |
| G39A C85U | -1.3 |
| A37U C64U | -1.67 |
| G39A A74G | -0.641 |
| U38A A46U | -2.42 |
| A37U G61U C114A U130A | -1.52 |
| U38A G58C C70U C115A | -1.72 |
| A37U U112G | -1.14 |
| U38G G69C C86U C115A | -3.28 |
| A37U A66U | -1.5 |
| U38C C40U C56G U78A G113A | -3.17 |
| G39A C73A | -0.374 |
| G39A A118U | 0.354 |
| A37U G57C G63A | -1.29 |
| A37U G39U G69A | -4.43 |
| U38A C94G | -2.2 |
| A37G G63U C101G C104G C114U G128A | -4.99 |
| A37U G69U A118C | -2.82 |

| Variant | polymerase ribozyme fitness (log ratio) |
| --- | --- |
| A37G G71U C114A A119C | -5.35 |
| A37U U59C | -0.107 |
| A37U U59A | -0.609 |
| U38G G42U G120C U126G G128U | -3.39 |
| U38G G127U G135U | -2.73 |
| A37U G47C C56G C104A | -3.66 |
| A37U G48U G57U G60U U129C | -1.31 |
| U38G A83C | -1.25 |
| G39A A43U C72G | -1.83 |
| U38A G52A U55G G128A | -2.73 |
| A37U C89U A108G | -3.18 |
| U38A G48U C49A U87A C115A | -3.9 |
| G39A G51U U78A | -4.54 |
| U38C C70A | -1.91 |
| U38C A43U C86A | -2.82 |
| G39A A119U | -0.287 |
| A37U C49G U55A C104A | -1.38 |
| A37U G44A C101A A111G | -1.68 |
| G39A C89G C101U | -1.85 |
| A37U A50G U54G | -0.818 |
| A37U A66C C76U | -2.83 |
| A37U C85U | -1.29 |
| A37U U54C G60U C123U | 1.13 |
